Results reported in patent US20230279138A1 (CHIA TAI TIANQING PHARMACEUTICAL GROUP, published 2023).

What was measured:
[1] = target: T1, CD20 on Raji cells (CD20+/CD3- cells) (human, UniProt P11836 1-297); assay: flow cytometry on Raji cells (CD20+/CD3-)
T1 construct: whole, on cells; Raji, Ramos and NAMALWA in the killing assays; also called Ramos; NAMALWA
T1 sequence (looked up): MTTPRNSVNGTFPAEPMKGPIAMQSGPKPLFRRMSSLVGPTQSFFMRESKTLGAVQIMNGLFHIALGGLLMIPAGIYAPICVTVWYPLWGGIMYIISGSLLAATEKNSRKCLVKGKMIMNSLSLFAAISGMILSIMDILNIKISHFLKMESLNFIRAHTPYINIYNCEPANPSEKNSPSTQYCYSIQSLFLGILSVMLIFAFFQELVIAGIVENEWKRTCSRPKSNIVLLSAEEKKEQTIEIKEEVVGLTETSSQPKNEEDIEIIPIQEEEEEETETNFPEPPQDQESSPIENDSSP
Procedure: (§1) After incubation, the cells were washed twice with cold 1% BSA/1×PBS. […] After being washed twice, the geometric mean fluorescence (MFI) of the stained cells was measured using a FACS Canto II […] (BD Biosciences). Wells containing no antibody or containing only fluorescent secondary antibody were used to establish background fluorescence. The EC50 values for cell binding were determined using GraphPad Prism 5 software (GraphPad Software, La Jolla, Calif.); each value was calculated by four-parameter non-linear regression analysis.

[2] = target: T2, CD3 on Jurkat cells (CD3+/CD20- cells) (human, UniProt P07766 23-207; P04234 22-171; P09693 23-182); assay: flow cytometry on Jurkat 2B8 cells (CD3+/CD20-)
T2 construct: whole, on cells; also called Jurkat 2B8
Procedure: as §1

T2 sequence (P07766 23-207, chain 1 of 3): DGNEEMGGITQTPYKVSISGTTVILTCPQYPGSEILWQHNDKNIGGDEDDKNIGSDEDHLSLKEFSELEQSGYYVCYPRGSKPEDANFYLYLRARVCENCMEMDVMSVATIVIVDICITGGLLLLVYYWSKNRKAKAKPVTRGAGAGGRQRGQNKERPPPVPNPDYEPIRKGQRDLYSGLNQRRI
T2 sequence (P04234 22-171, chain 2 of 3): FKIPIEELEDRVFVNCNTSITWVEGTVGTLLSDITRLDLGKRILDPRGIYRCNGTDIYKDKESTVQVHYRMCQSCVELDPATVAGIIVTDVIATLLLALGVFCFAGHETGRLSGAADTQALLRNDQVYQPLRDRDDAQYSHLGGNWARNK
T2 sequence (P09693 23-182, chain 3 of 3): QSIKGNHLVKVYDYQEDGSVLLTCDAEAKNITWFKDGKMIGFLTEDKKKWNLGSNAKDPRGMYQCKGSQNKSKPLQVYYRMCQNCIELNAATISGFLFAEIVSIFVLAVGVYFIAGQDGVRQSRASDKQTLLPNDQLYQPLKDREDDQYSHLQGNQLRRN

B1: W3278-T2U3.E17R-1.uIgG4.SP (bispecific antibody)
heavy 1: QVQLVQSGAEVKKPGSSVKVSCKASGYSFTTYYIHWVRQAPGQGLEWMGWIFPGNDNIKYSEKFKGRVTITADKSTSTAYMELSSLRSEDTAVYYCAIDSVSIYYFDYWGQGTLVTVSSASTKGPSVFPLAPCSRSTSESTAALGCLVKDYFPEPVTVSWNSGALTSGVHTFPAVLQSSGLYSLSSVVTVPSSSLGTKTYTCNVDHKPSNTKVDKRVESKYGPPCPPCPAPEFLGGPSVFLFPPKPKDTLMISRTPEVTCVVVDVSQEDPEVQFNWYVDGVEVHNAKTKPREEQFNSTYRVVSVLTVLHQDWLNGKEYKCKVSNKGLPSSIEKTISKAKGQPREPQVYTLPPCQEEMTKNQVSLWCLVKGFYPSDIAVEWESNGQPENNYKTTPPVLDSDGSFFLYSRLTVDKSRWQEGNVFSCSVMHEALHNHYTQKSLSLSLG
heavy 2: EVQLVESGGGLVQPGRSLRLSCAASGFTFNDYAMHWVRQAPGKGLEWVSTISWNSGSIGYADSVKGRFTISRDNAKKSLYLQMNSLRAEDTALYYCAKDIQYGNYYYGMDVWGQGTTVTVLEDLKNVFPPEVAVFEPSEAEISHTQKATLVCLATGFYPDHVELSWWVNGKEVHSGVCTDPQPLKEQPALQDSRYALSSRLRVSATFWQNPRNHFRCQVQFYGLSENDEWTQDRAKPVTQIVSAEAWGRYGPPCPPCPAPEFLGGPSVFLFPPKPKDTLMISRTPEVTCVVVDVSQEDPEVQFNWYVDGVEVHNAKTKPREEQFNSTYRVVSVLTVLHQDWLNGKEYKCKVSNKGLPSSIEKTISKAKGQPREPQVCTLPPSQEEMTKNQVSLSCAVKGFYPSDIAVEWESNGQPENNYKTTPPVLDSDGSFFLVSRLTVDKSRWQEGNVFSCSVMHEALHNHYTQKSLSLSLG
light 1: not shown
light 2: EIVLTQSPATLSLSPGERATLSCRASQSVSSYLAWYQQKPGQAPRLLIYDASNRATGIPARFSGSGSGTDFTLTISSLEPEDFAVYYCQQRSNWPITFGQGTRLEIKPDIQNPDPAVYQLRDSKSSDKSVCLFTDFDSQTQVSQSKDSDVYITDKCVLDMRSMDFKSNSAVAWSQKSDFACANAFQNSIIPEDTFFPSPESS
notes: Human IgG4 with S228P, knobs-into-holes; WuXiBody format, in which one arm carries TCR constant domains; also called W3278 BsAb; WBP3278 BsAb
[1]
  EC50: 13.2 nM
  TOP MFI: 68500 MFI
[2]
  EC50: 129 nM
  TOP MFI: 3880 MFI

B2: Anti-CD20. IgG4 (U2) (antibody, V domains shown)
VH: QVQLQQPGAELVKPGASVKMSCKASGYTFTSYNMHWVKQTPGRGLEWIGAIYPGNGDTSYNQKFKGKATLTADKSSSTAYMQLSSLTSEDSAVYYCARSTYYGGDWYFNVWGAGTTVTVSA
VL: QIVLSQSPAILSASPGEKVTMTCRASSSVSYIHWFQQKPGSSPKPWIYATSNLASGVPVRFSGSGSGTSYSLTISRVEAEDAATYYCQQWTSNPPTFGGGTKLEIK
notes: Tested as IgG4; also called parental anti-CD20 antibody U2
[1]
  EC50: 11.4 nM
  TOP MFI: 53500 MFI

B3: W3278-U3T2.F18R-1.uIgG4.SP (bispecific antibody)
heavy 1: EVQLVESGGGLVQPGRSLRLSCAASGFTFNDYAMHWVRQAPGKGLEWVSTISWNSGSIGYADSVKGRFTISRDNAKKSLYLQMNSLRAEDTALYYCAKDIQYGNYYYGMDVWGQGTTVTVSSASTKGPSVFPLAPCSRSTSESTAALGCLVKDYFPEPVTVSWNSGALTSGVHTFPAVLQSSGLYSLSSVVTVPSSSLGTKTYTCNVDHKPSNTKVDKRVGGGGSGGGGSQVQLVQSGAEVKKPGSSVKVSCKASGYSFTTYYIHWVRQAPGQGLEWMGWIFPGNDNIKYSEKFKGRVTITADKSTSTAYMELSSLRSEDTAVYYCAIDSVSIYYFDYWGQGTLVTVLEDLKNVFPPEVAVFEPSEAEISHTQKATLVCLATGFYPDHVELSWWVNGKEVHSGVCTDPQPLKEQPALQDSRYALSSRLRVSATFWQNPRNHFRCQVQFYGLSENDEWTQDRAKPVTQIVSAEAWGRYGPPCPPCPAPEFLGGPSVFLFPPKPKDTLMISRTPEVTCVVVDVSQEDPEVQFNWYVDGVEVHNAKTKPREEQFNSTYRVVSVLTVLHQDWLNGKEYKCKVSNKGLPSSIEKTISKAKGQPREPQVYTLPPCQEEMTKNQVSLWCLVKGFYPSDIAVEWESNGQPENNYKTTPPVLDSDGSFFLYSRLTVDKSRWQEGNVFSCSVMHEALHNHYTQKSLSLSLG
heavy 2: EVQLVESGGGLVQPGRSLRLSCAASGFTFNDYAMHWVRQAPGKGLEWVSTISWNSGSIGYADSVKGRFTISRDNAKKSLYLQMNSLRAEDTALYYCAKDIQYGNYYYGMDVWGQGTTVTVSSASTKGPSVFPLAPCSRSTSESTAALGCLVKDYFPEPVTVSWNSGALTSGVHTFPAVLQSSGLYSLSSVVTVPSSSLGTKTYTCNVDHKPSNTKVDKRVESKYGPPCPPCPAPEFLGGPSVFLFPPKPKDTLMISRTPEVTCVVVDVSQEDPEVQFNWYVDGVEVHNAKTKPREEQFNSTYRVVSVLTVLHQDWLNGKEYKCKVSNKGLPSSIEKTISKAKGQPREPQVCTLPPSQEEMTKNQVSLSCAVKGFYPSDIAVEWESNGQPENNYKTTPPVLDSDGSFFLVSRLTVDKSRWQEGNVFSCSVMHEALHNHYTQKSLSLSLG
light 1: not shown
light 2: DIVMTQSPDSLAVSLGERATINCKSSQSLLNSRTRKNYLAWYQQKPGQPPKLLIYWASTRKSGVPDRFSGSGSGTDFTLTISSLQAEDVAVYYCTQSFILRTFGGGTKVEIKPDIQNPDPAVYQLRDSKSSDKSVCLFTDFDSQTQVSQSKDSDVYITDKCVLDMRSMDFKSNSAVAWSQKSDFACANAFQNSIIPEDTFFPSPESS
notes: Human IgG4 S228P, knobs-into-holes; also called W3278 BsAb; WBP3278 BsAb
[1]
  EC50: 1.3 nM
  TOP MFI: 55400 MFI
[2]
  EC50: 26.6 nM
  TOP MFI: 536 MFI

B4: W3278-T3U2.F17R-1.uIgG4.SP (bispecific antibody)
heavy 1: QVQLVQSGAEVKKPGSSVKVSCKASGFAFTDYYIHWVRQAPGQGLEWMGWISPGNVNTKYNENFKGRVTITADKSTSTAYMELSSLRSEDTAVYYCARDGYSLYYFDYWGQGTLVTVLEDLKNVFPPEVAVFEPSEAEISHTQKATLVCLATGFYPDHVELSWWVNGKEVHSGVCTDPQPLKEQPALQDSRYALSSRLRVSATFWQNPRNHFRCQVQFYGLSENDEWTQDRAKPVTQIVSAEAWGRGGGGSGGGGSQVQLQQPGAELVKPGASVKMSCKASGYTFTSYNMHWVKQTPGRGLEWIGAIYPGNGDTSYNQKFKGKATLTADKSSSTAYMQLSSLTSEDSAVYYCARSTYYGGDWYFNVWGAGTTVTVSAASTKGPSVFPLAPCSRSTSESTAALGCLVKDYFPEPVTVSWNSGALTSGVHTFPAVLQSSGLYSLSSVVTVPSSSLGTKTYTCNVDHKPSNTKVDKRVESKYGPPCPPCPAPEFLGGPSVFLFPPKPKDTLMISRTPEVTCVVVDVSQEDPEVQFNWYVDGVEVHNAKTKPREEQFNSTYRVVSVLTVLHQDWLNGKEYKCKVSNKGLPSSIEKTISKAKGQPREPQVYTLPPCQEEMTKNQVSLWCLVKGFYPSDIAVEWESNGQPENNYKTTPPVLDSDGSFFLYSRLTVDKSRWQEGNVFSCSVMHEALHNHYTQKSLSLSLG
heavy 2: QVQLQQPGAELVKPGASVKMSCKASGYTFTSYNMHWVKQTPGRGLEWIGAIYPGNGDTSYNQKFKGKATLTADKSSSTAYMQLSSLTSEDSAVYYCARSTYYGGDWYFNVWGAGTTVTVSAASTKGPSVFPLAPCSRSTSESTAALGCLVKDYFPEPVTVSWNSGALTSGVHTFPAVLQSSGLYSLSSVVTVPSSSLGTKTYTCNVDHKPSNTKVDKRVESKYGPPCPPCPAPEFLGGPSVFLFPPKPKDTLMISRTPEVTCVVVDVSQEDPEVQFNWYVDGVEVHNAKTKPREEQFNSTYRVVSVLTVLHQDWLNGKEYKCKVSNKGLPSSIEKTISKAKGQPREPQVCTLPPSQEEMTKNQVSLSCAVKGFYPSDIAVEWESNGQPENNYKTTPPVLDSDGSFFLVSRLTVDKSRWQEGNVFSCSVMHEALHNHYTQKSLSLSLG
light 1: DIVMTQSPDSLAVSLGERATINCKSSQSLLNSRTRKNYLAWYQQKPGQPPKLLIYWASTRQSGVPDRFSGSGSGTDFTLTISSLQAEDVAVYYCTQSHTLRTFGGGTKVEIKPDIQNPDPAVYQLRDSKSSDKSVCLFTDFDSQTQVSQSKDSDVYITDKCVLDMRSMDFKSNSAVAWSQKSDFACANAFQNSIIPEDTFFPSPESS
light 2: QIVLSQSPAILSASPGEKVTMTCRASSSVSYIHWFQQKPGSSPKPWIYATSNLASGVPVRFSGSGSGTSYSLTISRVEAEDAATYYCQQWTSNPPTFGGGTKLEIKRTVAAPSVFIFPPSDEQLKSGTASVVCLLNNFYPREAKVQWKVDNALQSGNSQESVTEQDSKDSTYSLSSTLTLSKADYEKHKVYACEVTHQGLSSPVTKSFNRGEC
notes: also called W3278 BsAb; WBP3278 BsAb
[1]
  EC50: 85.3 nM
  TOP MFI: 64900 MFI
[2]
  EC50: 17.3 nM
  TOP MFI: 7360 MFI

B5: Anti-CD3 Fab (T2) (Fab, V domains shown)
VH: QVQLVQSGAEVKKPGSSVKVSCKASGYSFTTYYIHWVRQAPGQGLEWMGWIFPGNDNIKYSEKFKGRVTITADKSTSTAYMELSSLRSEDTAVYYCAIDSVSIYYFDYWGQGTLVTVSS
VL: DIVMTQSPDSLAVSLGERATINCKSSQSLLNSRTRKNYLAWYQQKPGQPPKLLIYWASTRKSGVPDRFSGSGSGTDFTLTISSLQAEDVAVYYCTQSFILRTFGGGTKVEIK
notes: Parental antibody tested as a Fab; The variable domains are tied to it through the clone naming: T2 is the anti-CD3 portion of W3278-T2U3 and W3278-U3T2; also called parental anti-CD3 antibody T2
[2]
  EC50: 33 nM
  TOP MFI: 3210 MFI

B6: Anti-CD3 Fab (T3) (Fab, V domains shown)
VH: QVQLVQSGAEVKKPGSSVKVSCKASGFAFTDYYIHWVRQAPGQGLEWMGWISPGNVNTKYNENFKGRVTITADKSTSTAYMELSSLRSEDTAVYYCARDGYSLYYFDYWGQGTLVTVSS
VL: DIVMTQSPDSLAVSLGERATINCKSSQSLLNSRTRKNYLAWYQQKPGQPPKLLIYWASTRQSGVPDRFSGSGSGTDFTLTISSLQAEDVAVYYCTQSHTLRTFGGGTKVEIK
notes: Parental antibody tested as a Fab; The variable domains are tied to it through the clone naming: T3 is the anti-CD3 portion of W3278-T3U2 and W3278-U2T3; also called parental anti-CD3 antibody T3
[2]
  EC50: 43.7 nM
  TOP MFI: 3800 MFI
